Our source for the Nav1.2 IC50 (nM), EP (electrophysiology) sodium channel blocking activity, Nav1.2 IC50 (nM), FLIPR sodium channel blocking activity and Nav1.7 IC50 (nM), FLIPR sodium channel blocking activity values is patent US20150191517A1.

Experiment in all cases: cell-based or functional assay
For experiment [1], the target named is Nav1.2 (rBIIa) (rat (printed only as rBIIa)) (UniProt P04775).
Experiment [2] concerns the target human Nav1.7 alpha-subunit (human) (UniProt Q15858).
In experiment [3] the target is Nav1.2 (rBIIa) (rat (printed only as rBIIa)), P04775.
Sequence of Nav1.2 (rBIIa) (rat (printed only as rBIIa)), P04775 (P04775 whole entry): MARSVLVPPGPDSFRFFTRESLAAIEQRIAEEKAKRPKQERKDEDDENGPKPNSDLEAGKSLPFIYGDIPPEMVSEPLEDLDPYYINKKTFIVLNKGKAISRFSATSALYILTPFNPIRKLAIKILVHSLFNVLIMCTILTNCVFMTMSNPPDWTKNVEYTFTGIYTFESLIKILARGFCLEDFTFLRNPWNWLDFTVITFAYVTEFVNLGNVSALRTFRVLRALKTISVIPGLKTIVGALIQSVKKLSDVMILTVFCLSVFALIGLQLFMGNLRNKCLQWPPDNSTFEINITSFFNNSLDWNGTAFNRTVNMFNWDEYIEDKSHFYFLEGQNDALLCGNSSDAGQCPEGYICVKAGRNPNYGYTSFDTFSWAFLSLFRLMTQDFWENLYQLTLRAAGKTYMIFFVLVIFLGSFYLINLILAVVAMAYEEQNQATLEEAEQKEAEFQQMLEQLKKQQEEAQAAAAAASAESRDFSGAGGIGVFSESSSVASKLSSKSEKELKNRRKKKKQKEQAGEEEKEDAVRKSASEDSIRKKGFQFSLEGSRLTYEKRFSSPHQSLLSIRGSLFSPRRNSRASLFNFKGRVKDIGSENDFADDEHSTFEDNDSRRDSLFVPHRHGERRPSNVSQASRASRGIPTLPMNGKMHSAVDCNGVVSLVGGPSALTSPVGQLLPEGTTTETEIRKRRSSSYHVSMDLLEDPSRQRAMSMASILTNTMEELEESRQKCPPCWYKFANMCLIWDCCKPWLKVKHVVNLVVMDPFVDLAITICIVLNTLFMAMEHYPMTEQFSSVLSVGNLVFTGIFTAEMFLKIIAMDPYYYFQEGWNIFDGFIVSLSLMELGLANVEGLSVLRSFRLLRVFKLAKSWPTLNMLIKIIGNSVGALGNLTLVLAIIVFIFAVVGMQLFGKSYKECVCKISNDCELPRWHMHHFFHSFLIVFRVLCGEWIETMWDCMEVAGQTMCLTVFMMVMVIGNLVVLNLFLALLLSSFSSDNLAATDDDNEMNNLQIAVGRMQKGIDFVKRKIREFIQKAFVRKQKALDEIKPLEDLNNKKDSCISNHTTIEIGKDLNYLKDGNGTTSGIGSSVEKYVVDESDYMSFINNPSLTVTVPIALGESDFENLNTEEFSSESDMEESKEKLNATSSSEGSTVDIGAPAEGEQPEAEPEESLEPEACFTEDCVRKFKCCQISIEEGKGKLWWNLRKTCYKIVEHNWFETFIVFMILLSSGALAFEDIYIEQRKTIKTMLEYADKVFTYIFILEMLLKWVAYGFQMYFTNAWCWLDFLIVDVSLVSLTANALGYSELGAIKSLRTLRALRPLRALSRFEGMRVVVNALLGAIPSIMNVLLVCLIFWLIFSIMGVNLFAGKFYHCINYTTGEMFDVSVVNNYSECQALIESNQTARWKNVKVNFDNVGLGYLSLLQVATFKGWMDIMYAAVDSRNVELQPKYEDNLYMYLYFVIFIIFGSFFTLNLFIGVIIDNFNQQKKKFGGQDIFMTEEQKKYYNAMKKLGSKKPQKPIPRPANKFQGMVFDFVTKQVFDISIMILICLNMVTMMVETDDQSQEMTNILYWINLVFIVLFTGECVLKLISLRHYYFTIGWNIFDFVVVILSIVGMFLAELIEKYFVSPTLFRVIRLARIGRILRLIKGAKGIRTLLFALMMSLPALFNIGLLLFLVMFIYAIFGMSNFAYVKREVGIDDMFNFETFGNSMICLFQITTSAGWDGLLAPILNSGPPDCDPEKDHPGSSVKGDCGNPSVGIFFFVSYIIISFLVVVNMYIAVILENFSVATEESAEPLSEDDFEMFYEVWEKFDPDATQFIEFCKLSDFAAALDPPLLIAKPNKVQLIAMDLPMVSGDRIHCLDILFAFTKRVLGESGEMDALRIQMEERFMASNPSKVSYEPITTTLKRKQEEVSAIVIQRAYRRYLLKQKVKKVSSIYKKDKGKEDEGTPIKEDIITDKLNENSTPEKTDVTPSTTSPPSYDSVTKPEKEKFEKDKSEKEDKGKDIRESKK
Experiment [4] addresses human Nav1.7 alpha-subunit (human), Q15858.

Where no end group is shown, it is not given here. [ ]: non-standard residue; d: D form.

Sequence of Nav1.2 (rBIIa) (rat (printed only as rBIIa)) (P04775 whole entry): as above
Sequence of human Nav1.7 alpha-subunit (human) (Q15858 whole entry): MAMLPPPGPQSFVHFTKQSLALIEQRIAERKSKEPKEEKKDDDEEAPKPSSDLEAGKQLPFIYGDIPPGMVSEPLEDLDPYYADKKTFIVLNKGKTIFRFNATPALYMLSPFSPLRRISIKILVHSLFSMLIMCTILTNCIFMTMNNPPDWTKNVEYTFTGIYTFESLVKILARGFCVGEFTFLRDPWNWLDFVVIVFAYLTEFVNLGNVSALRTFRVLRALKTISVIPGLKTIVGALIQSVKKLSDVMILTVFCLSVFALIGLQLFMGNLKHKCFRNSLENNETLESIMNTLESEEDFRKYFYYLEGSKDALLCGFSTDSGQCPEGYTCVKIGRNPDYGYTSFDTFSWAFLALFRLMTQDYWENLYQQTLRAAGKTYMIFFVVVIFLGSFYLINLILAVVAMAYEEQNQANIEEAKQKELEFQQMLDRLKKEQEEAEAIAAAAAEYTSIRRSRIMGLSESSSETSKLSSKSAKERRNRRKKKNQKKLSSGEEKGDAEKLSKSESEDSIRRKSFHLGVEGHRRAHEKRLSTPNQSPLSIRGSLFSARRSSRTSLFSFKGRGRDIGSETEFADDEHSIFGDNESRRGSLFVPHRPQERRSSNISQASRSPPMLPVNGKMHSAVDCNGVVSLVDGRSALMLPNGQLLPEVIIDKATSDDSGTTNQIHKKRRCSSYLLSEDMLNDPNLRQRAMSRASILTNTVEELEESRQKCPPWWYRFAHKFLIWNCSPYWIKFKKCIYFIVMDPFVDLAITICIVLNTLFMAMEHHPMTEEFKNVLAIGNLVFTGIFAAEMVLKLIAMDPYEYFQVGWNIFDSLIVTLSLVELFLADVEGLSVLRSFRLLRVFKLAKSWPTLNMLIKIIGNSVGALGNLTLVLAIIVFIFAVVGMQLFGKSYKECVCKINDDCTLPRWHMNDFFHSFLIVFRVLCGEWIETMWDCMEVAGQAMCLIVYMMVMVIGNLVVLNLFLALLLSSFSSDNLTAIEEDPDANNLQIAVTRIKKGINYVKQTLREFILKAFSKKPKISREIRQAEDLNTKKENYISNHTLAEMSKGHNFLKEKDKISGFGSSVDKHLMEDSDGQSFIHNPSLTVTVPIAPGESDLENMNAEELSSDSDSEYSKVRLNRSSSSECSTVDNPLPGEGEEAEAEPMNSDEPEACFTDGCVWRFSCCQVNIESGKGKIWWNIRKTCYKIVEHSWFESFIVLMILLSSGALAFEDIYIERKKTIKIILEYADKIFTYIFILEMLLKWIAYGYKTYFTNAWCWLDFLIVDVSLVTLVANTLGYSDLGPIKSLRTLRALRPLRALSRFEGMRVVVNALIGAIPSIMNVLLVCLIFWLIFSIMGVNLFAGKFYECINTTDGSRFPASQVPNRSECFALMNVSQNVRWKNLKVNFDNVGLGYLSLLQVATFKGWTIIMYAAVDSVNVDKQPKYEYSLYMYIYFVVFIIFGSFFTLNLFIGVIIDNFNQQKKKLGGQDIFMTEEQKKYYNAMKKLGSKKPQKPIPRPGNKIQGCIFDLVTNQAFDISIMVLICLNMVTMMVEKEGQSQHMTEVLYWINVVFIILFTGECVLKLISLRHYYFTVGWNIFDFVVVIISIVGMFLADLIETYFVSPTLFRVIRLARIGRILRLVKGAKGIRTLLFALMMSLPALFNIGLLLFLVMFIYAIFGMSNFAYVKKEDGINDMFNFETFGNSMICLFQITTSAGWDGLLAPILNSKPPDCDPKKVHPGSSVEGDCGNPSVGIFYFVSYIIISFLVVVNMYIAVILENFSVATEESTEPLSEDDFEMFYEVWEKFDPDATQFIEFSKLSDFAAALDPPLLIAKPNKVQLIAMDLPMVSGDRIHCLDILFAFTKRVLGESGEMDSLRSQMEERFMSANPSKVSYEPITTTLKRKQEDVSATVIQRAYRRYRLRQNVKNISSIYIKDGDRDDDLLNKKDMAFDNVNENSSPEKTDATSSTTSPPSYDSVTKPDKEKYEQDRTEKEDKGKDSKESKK
Sequence of human Nav1.7 alpha-subunit (human), Q15858 (Q15858 whole entry): as above

Regarding Protoxin II (peptide), in experiment [1], the Nav1.2 IC50 (nM), EP (electrophysiology) sodium channel blocking activity worked out at 100 nM and the Nav1.2 IC50 (nM), FLIPR sodium channel blocking activity turned out to be 379 nM.
Consider YCQKWMWTCDSERKCCEGMVCRLWCKKKLWW (not fully specified; ends and bridges not checked) [Protoxin II-D-Trp], for which, in experiment [1], the Nav1.2 IC50 (nM), FLIPR sodium channel blocking activity amounted to 102 nM. In experiment [2], the Nav1.7 IC50 (nM), FLIPR sodium channel blocking activity was determined as 16.5 nM.
YCQKWMWTCDSERKCCEGMVCRLWCKKKL[dW]-NHcyclohexyl (ends and bridges not checked) [Protoxin II (D)-NHcyclohexyl] registered a Nav1.2 IC50 (nM), FLIPR sodium channel blocking activity in experiment [3] of 336 nM. The Nav1.7 IC50 (nM), FLIPR sodium channel blocking activity in experiment [4] came to 31 nM.
